Results published in the DeepSol protein solubility set.

Assay: soluble on expression in E. coli; label from the status in PepcDB or PDB records
With “GPGSMLEPIFEEITCLFASRNPKHALQGLSDGLRNAATGVGLGLAGVVAGTYGGAKEGGLGGMAKGFGAGMAGFVGLTGYGAYAGVRQIVRGVGNTRSAVSEVSKGEAYWDSNAQAWVRVNLACDFERLPQTDEDLLGTARKAYEKAKKDGTLPTTLNDSAEGGGASASSATTGAGAASVPQGTDTGETKPAAAEPVNYYAFLGVESAATPSEIRKAYTRKALEMHPDKNPNDPNATIKFQELNKIYNVLSHEGTRATYDRYGTVDPMNVPEMTGNPMKELLGAAFLEALVGPLHFFLVFEGGVLFTAEMKRELHARRRLRVAKNLVSWLDNGASGFESAQLALRDAVSTALGPVFVSYVAEEYHLASRQQLHGSNWKREMDSWYSSWATSASSLWHWTTMGARTARRAFVDKNLGEEDILRVLAVANERDVRQIVLQACRLVLFDMSVTPAQRQQRAMRLEELSVMAMKEVAREVASRERIGASEATAAAAEKGTTTKTPADTNATAPPFS” the “soluble on expression in E. coli” value was “soluble”.
For “SHMEIVPDTSVVIDGRVSDQVKADADPDTDVDGMGFAGATVVVPEAVVGELEAQANDGRETGWEGLEELQTLVDLAEEGTIDVEYVGRRPDAIEKREAGEGQIDALIRDIAGDRDATLVTSDDVQAEVARAKGLAVEFVDPVKRTVDRLQIENFFDEG”, the “soluble on expression in E. coli” value was “not soluble”.
With “VMGKRYVATPQQSQWEMVVNTPLECQLVHPIPSFGDAVFSSRANKKINLDFELKMRRPMGETRNVSLISMPPPWRPGEHADRITNLKFFKQFDGYVGGQTAWGILSELEKGRYPTFSYQDWQSRDQRIEVALSSVLFQNKYNAFSDCISNLLKYSFEDIAFTILHYERQGDQLTKASKKRLSQIADYIRHNQDIDLVLVATYTDSTDGKSASQSLSERRAESLRDYFQSLGLPEDRIQVQGYGKRRPIADNGSPIGKDKNRRVVISLGRTQVHHHHHH” the “soluble on expression in E. coli” value was “soluble”.
In the case of “MKKVLIAALIAGFSLSATAAQTIRFATEASYPPFESMDANNKIVGFDVDLANALCKEIDASCTFTNQAFDSLIPSLKFRRFDAVMAGMDITPEREKQVLFTTPYYDNSALFVGQQGKYTSVDQLKGKKVGVQNGTTHQKFIMDKHPEITTVPYDSYQNAKLDLQNGRIDAVFGDTAVVTEWLKANPKLAPVGDKVTDKDYFGTGLGIAVRQGNTELQQKFNTALEKVKKDGTYETIYNKWFQK”, the “soluble on expression in E. coli” value is reported as “not soluble”.
For “MAAVDVNQPITGHKSAIIRNYNTNPRLIYQTVCGVNGPLVILNDVKFPQFSEIVKITLPDGSKRSGQVLEISKNKAVVQVFEGTSGIDAKNTICEFTGDILRTPVSEDMLGRIFNGSGKPIDKGPPVLAEDFLDINGQPINPWSRIYPEEMIQTGISAIDVMNSIARGQKIPIFSASGLPHNEIAAQIVRQGGLVQLPDRPHEQTNFAIVFAAMGVNMETARFFKQDFEENGSMENVCLFLNLANDPTIERIITPRIALTSAEFLAYQCKKHVLVVLTDMSSYAEALREVSAAREEVPGRRGFPGYMYTDLATIYERAGRVEGRDGSITQIPILTMPNDDITHPIPDLTGYITEGQIYVDRQLHNRLIYPPINVLPSLSRLMKSAIGEGMTREDHSDVSNQLYACYAIGKDVQAMKAVVGEEALSSDDLLYLEFLTKFEKNFITQGHYENRSVFESLDIGWQLLRIFPREMLKRIPESTLEKYYPRGGAKE”, the “soluble on expression in E. coli” value was “not soluble”.
For “MGSDKIHHHHHHMHTCPRCDSKKGEVMSKSPVEGAWEVYQCQTCFFTWRSCEPESITNPEKYNPAFKIDPKETETAIEVPAVPEPKGLIRVNCMSDRLFELLDGSCLNEKQHEAFVLQTVSEDGWPHAAMISAGEIIALSRTDIRIALWKNTMTSANILRTGKAQFTAWWKGAAYYVKLECAPLPPLKDAEYERDRFSCRIVSVKEDVAKYADLTSGVRIQLHSPEEVLSRWKKTLEDLKR”, the “soluble on expression in E. coli” value was “not soluble”.
In the case of “KDFCASIHRNDSLSLTHELEPFIDSMKNKTGVYVLEDGGGSLITRAWLSEYAEETIDIQYFIFSADNVGLIACDYLVRAADRGVKVRILIDDILVEAGVHEILTLDSHENIEIKIYNPGINLGKNIFNKIGKFTTDFRGANQRMHNKTFIVDHKVVITGGRNIADEYFDYDHEYNFRDRDVLLIGKTATDVQQSFESFWVDALSIPITGLVKEDDVTYTDTSRFERLHQYACNPDNFWPQVRKRISN”, the “soluble on expression in E. coli” value is reported as “not soluble”.
For “MNYATTPTAFVESKLNSMPGDALGYLRRLDQRWQALCQGDLPPIAEVAQKVNTNLGEADFDAVICGGTLGILLAASLQIRGWQVVVIERGKLQGRAQEWNISRQELQTFVELELLTSEELETAIASEYNPGRIAFHGGQEFWIKNVLNVGIDPIYLLEKLKQKFLQAGGKLLEHSAFQKAIIHSDGVAISYQHDGENQVERKLTSRLLIDAMGHGSPLVNQARQGEIPDGVCLVVGSCAQGYSDNETGDLIATTTGITNHCQYFWEAFPARDGRTTYLFTYVDVHPERISLEFFFQEYFRLLPEYQKINLDQLQWQRFLSGFFPAYKSSPLHFSWGRVLAVGDSAGSQSPVSFGGFGAMVRHLKRLTNAIGEALAGDYLAAEDLALLQPYQPNIGVTWLFQQTMGVKVGQTADPEQINRLMNAVFAVMDRQGQEVMEPFLQDVIQWSGLTQTLPRVNPLIVLPLLPQIGLPALMEWLGHYANLAGYSLTYPLAKNLLFTNPSFEQKRRLEAWYYGSGYDFHH”, the “soluble on expression in E. coli” value was “not soluble”.
In the case of “AKWPHLKVGGAILVAPAEPRHSDRTESFGPIFEESLGVPAYVVSSRNDPWMSFTQAERLARAWRADVVDLGFAGHINVDSGFGPWPGGVVLRDELARRPVP”, the “soluble on expression in E. coli” value is reported as “not soluble”.
With “MGHHHHHHHHMTTSILDTYPQICSPNALPGTPGNLTKEQEEALLQFRSILLEKNYKERLDDSTLLRFLRARKFDINASVEMFVETERWREEYGANTIIEDYENNKEAEDKERIKLAKMYPQYYHHVDKDGRPLYFEELGGINLKKMYKITTEKQMLRNLVKEYELFATYRVPACSRRAGYLIETSCTVLDLKGISLSNAYHVLSYIKDVADISQNYYPERMGKFYIIHSPFGFSTMFKMVKPFLDPVTVSKIFILGSSYKKELLKQIPIENLPVKYGGTSVLHNPNDKFYYSDIGPWRDPRYIGPEGEIPNIFGKFTVTS” the “soluble on expression in E. coli” value was “soluble”.
With “MTKTKFEKVLLIVNPKAGQGDLHTNLTKIVPPLAAAFPDLHILHTKEQGDATKYCQEFASKVDLIIVFGGDGTVFECTNGLAPLEIRPTLAIIPGGTCNDFSRTLGVPQNIAEAAKLITKEHVKPVDVAKANGQHFLNFWGIGLVSEVSNNIDAEEKAKLGKIGYYLSTIRTVKNAETFPVKITYDGQVYEDEAVLVMVGNGEYLGGIPSFIPNVKCDDGTLDIFVVKSTGIQAFKDYIGKKLFEDSNENDIFHVKAKSIHIETEEEKEVDTDGESSLHTPCQIELLQGHFTMIYNPAVV” the “soluble on expression in E. coli” value was “soluble”.
With “SSSIKVECVIKEKNEVGESPVWEEKDSSLLYVDITGQKVSRWSSLTKQIESMNTEKLVGCVVPRQAGGYVIAEGTRFAFVDWVKRSITAVAEVNEKPNTRFNDGKVDPAGRFFAGTMSMDMKPDVVDAALYNLQPDHSVVRHFDQVHLSNGLDWSLDHRVFYYIDSLAFMVEAFDYDIQTGGLSNRRTVYKMEKDEGIPDGMCIDTEGKLWVACFNGGRVLRIDPQTGKRLQTVKLPAERITSCCFGGKDYSDLYITSAYIGMDAEALAKQPEAGCTFKVTGLGVKGIPPYSYTG” the “soluble on expression in E. coli” value was “soluble”.
For “MVGWRIVRIATHPEVQGRGIGSWLLERLYEESVERGYDWLGSGFGINEQLLRFWLRNGFLVLHLSPD”, the “soluble on expression in E. coli” value was “not soluble”.
For “MGDSEIYVSLDIGTASVKVIIAEMADDRLNIIGVGNVESSGIKKGIIIDIDKTVESIKKAIEQAERMVGVEISQVIVGVVSSQVHLEACRGIVAVGSENREITDEDVWNVMDAAQVVPLSPEREIINTIPDQFVVDGLTGITDPRGMIGVRLEMEGTLITGSKTILHNTLRCVERAGLEISDIALQPLAEASISLSEDDKEFGTALVNIGAGTTTVSVFEQGRLTYTGVIPVGGDNITKDLSLGLNTSTANADRVKLEHGYAFYDDASPDEVFAIDVIGSDQKQHFTQVEVADIIEARMEEIFQLVVEELNRVGKTHLPGGYVLTGGSMAIPGAIDLAGKTLAAHVRLAIPDYIGVREPSFTTAVGLIKYAYQMAELEGRDVSSTASEPRYDDEAPKQPKQKPKKSDDEKVSTKMKNFFGAFFE”, the “soluble on expression in E. coli” value was “not soluble”.
With “MGHHHHHHSHMYAFTLHPNAQHRRTRIGTSVDLSCLLCFRIGGFYALSPYPGLRLISLNMNFCSRENFWLLINSTDPAGQLQWLVGELQAAEDRGDKVRASSGNTVVLGDKQAPVELEHLWAQKFYFPGIPNKCSLGIQLMVTVESLHSVPLSLARAAWTPGCPDYHP” the “soluble on expression in E. coli” value was “not soluble”.
With “MSLDLNDTYSGKREPFSGDHSADGFEVTSRSEMSSGSEISPVSEMPSSSEPSSGADYDYSEEYDNEPQIPGYIVDDSVRVEQVVKPPQNKTESENTSDKPKRKKKGGKNGKNRRNRKKKNPCNAEFQNFCIHGECKYIEHLEAVTCKCQQEYFGERCGEKSMKTHSMIDSSEGHHHHHH” the “soluble on expression in E. coli” value was “soluble”.
With “MAHILLIPANSPFVVTGALSAKVSTVEEFAQKHRAFAIFNAGFFDPANQKSTSYVVVTGQMVADPKDNERLVNNPQLKPYLNLIFNRSEFRRYLCGQTTRYDITLHNESPPANCRLVDAIGAGPRLLPKLTSVPEGFVDNAKGRDALLSKQLNARTAVGITSEGSIILVMVAQKPSKPKNSGISLVQLADLMKKLGASAAMNLDGGSSSSLYYNGKAFYGKFDLQGNPIKRKVKSVLLVQENVRNLEHHHHHH” the “soluble on expression in E. coli” value was “not soluble”.
In the case of “MEEKVEFILEVRSIPVYGDEFSPRLRKFFPIDYEPVERVTVPTSKKADYAVMISSNLKPFSIKEGDYILISLDDEPQEGDLVAVLVKDFRITVGRVKERQEDIFVVEVGNEVGIYRCFIFPYLDQLHRSSFELSFNPYVLGKITAILRKKPAH”, the “soluble on expression in E. coli” value is reported as “soluble”.
For “MGSDKIHHHHHHMNNFNNEIKLILQQYLEKFEAHYERVLQDDQYIEALETLMDDYSEFILNPIYEQQFNAWRDVEEKAQLIKSLQYITAQCVKQVEVIRARRLLDGQASTTGYFDNIEHCIDEEFGQCSIASNDKLLLVGSGAYPMTLIQVAKETGASVIGIDIDPQAVDLGRRIVNVLAPNEDITITDQKVSELKDIKDVTHIIFSSTIPLKYSILEELYDLTNENVVVAMRFGDGIKAIFNYPSQETAEDKWQCVNKHMRPQQIFDIALYKKAAIKVGITDV”, the “soluble on expression in E. coli” value was “not soluble”.
With “MSGDDYMGAMALLGIKPDTDPLSIKRAYRRLLSRHHPDKIAGSGANAQQVRVATEKTSELHNAYRVVKARRGFALEHHHHHH” the “soluble on expression in E. coli” value was “not soluble”.
With “MQDSVLGVMQPDGFQDIVAARFREARAGGLISTVFQIEIDDHTSLVERHGQRAAEVISTTSADRIAAVLRDRDAVTHLDTFKYAVCLEPVRQMDLELCIQLAGRIQAALEEPIALDATAVCITSSVGFCQQTKVLSRSGEAWLAAAGHALREAHLNGPGAIRAYSLEHHHHHH” the “soluble on expression in E. coli” value was “not soluble”.
With “AIAVSRLEHPAGGYKKVFESCEELAEPIPAHVSGKIPAWLSGSLLRMGPGLFEIGDEPFNHLFDGQALIHKFDLKDGRVTYHRKFIRTDAYVRAMTEKRVVITELGTAAYPDPCKNIFSRFFTYFQGTEVTDNCSVNIYPIGEDFYACTETNFITKVNPDTLETIKKVDLCNYLSVNGLTAHPHIEADGTVYNIGNCFGKNMSLAYNIVKIPPLQEEKSDPLAMSKVLVQFPSSERFKPSYVHSFGMTENHFVFVETPVKINLLKFLTSWSIRGSNYMDCFESNDRMGTWFHLAAKNPGKYINNPSQ” the “soluble on expression in E. coli” value was “soluble”.
